Measurements as given in article PMC3448830.

How the values were obtained:
Settings in all cases: other: substrate, Hanes-Woolf plots, pH 8.5, room temperature, 16 h
NCc1c[nH]c(C(=O)O)c1 = assay: Substrate activity for GABA-AT; type: biochemical, pig
NCc1ccc(C(=O)O)[nH]1 = assay: Substrate activity for GABA-AT; type: biochemical, pig
NCc1ccc(C(=O)O)o1 = assay: Substrate activity for GABA-AT; type: biochemical, pig
NCc1ccc(C(=O)O)s1 = assay: Substrate activity for GABA-AT; type: biochemical, pig
NCc1coc(C(=O)O)c1 = assay: Substrate activity for GABA-AT; type: biochemical, pig
NCc1cocc1C(=O)O = assay: Substrate activity for GABA-AT; type: biochemical, pig
NCc1csc(C(=O)O)c1 = assay: Substrate activity for GABA-AT; type: biochemical, pig
NCCCC(=O)O = assay: purified protein, by the assay type

GABA-AT (Sus scrofa)
Km (NCc1c[nH]c(C(=O)O)c1): 1400 ± 300 µM | kcat (NCc1c[nH]c(C(=O)O)c1): 5.67e-05 ± 5e-06 s⁻¹ | kcat/Km (NCc1c[nH]c(C(=O)O)c1): 0.04 M⁻¹ s⁻¹ | Km (NCc1ccc(C(=O)O)[nH]1): 9500 ± 300 µM | kcat (NCc1ccc(C(=O)O)[nH]1): 2.5e-05 ± 3.33e-06 s⁻¹ | kcat/Km (NCc1ccc(C(=O)O)[nH]1): 0.00267 M⁻¹ s⁻¹ | Km (NCc1ccc(C(=O)O)o1): 2100 ± 100 µM | kcat (NCc1ccc(C(=O)O)o1): 0.000567 ± 6.67e-05 s⁻¹ | kcat/Km (NCc1ccc(C(=O)O)o1): 0.267 M⁻¹ s⁻¹ | Km (NCc1ccc(C(=O)O)s1): 6300 ± 200 µM | kcat (NCc1ccc(C(=O)O)s1): 0.000167 ± 5e-05 s⁻¹ | kcat/Km (NCc1ccc(C(=O)O)s1): 0.0267 M⁻¹ s⁻¹ | Km (NCc1coc(C(=O)O)c1): 310 ± 70 µM | kcat (NCc1coc(C(=O)O)c1): 3.83e-05 ± 1.67e-06 s⁻¹ | kcat/Km (NCc1coc(C(=O)O)c1): 0.123 M⁻¹ s⁻¹ | Km (NCc1cocc1C(=O)O): 2800 ± 500 µM | kcat (NCc1cocc1C(=O)O): 1.38e-05 ± 8.33e-07 s⁻¹ | kcat/Km (NCc1cocc1C(=O)O): 0.005 M⁻¹ s⁻¹ | Km (NCc1csc(C(=O)O)c1): 1700 ± 300 µM | Km (NCCCC(=O)O): 1300 ± 300 µM | kcat (NCCCC(=O)O): 0.817 s⁻¹ | kcat/Km (NCCCC(=O)O): 643 M⁻¹ s⁻¹
